Target: human insulin receptor (IR), overexpressed in rat fibroblasts (HIRc B cells) (human) (UniProt P06213)
Assay: cell-based or functional assay

Substance: recombinant human AHSG (α2-Heremans Schmid Glycoprotein) (from UniProt P02765 19-367)
- insulin-induced IR autophosphorylation in intact HIRc B cells, rhAHSG at 1.8 µM: > 50%

— US20040198648A1
